Measurements from the supplement of paper PMC7125110.
± gives the standard error. For some assays here: Fewer inactive variants are shown than the library holds.

B1: glmS ribozyme (parent)
chain: AUAAAAGCGCCAGAACUACAGAAAUGUAGUUGACGAGGAGGAGGUUUAUCGAAUUUUCGGCGGAUGCCUCCAAA

Tests used:
Settings in all cases: with glucosamine-6-phosphate
glucosamine-6-phosphate [1] = variants of: B1; assay: kcat; higher = faster cleavage; RNA array
Outline: (§1)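 Glucosamine-6-phosphate, from 40 μM to 10 mM in HEPES/KCl/Mg(OAc)2 buffer, was flowed over sequenced MiSeq chips carrying barcoded ribozyme variants transcribed in situ by E. coli RNA polymerase. A hybridised Cy3 probe tracked the variants at 37 °C as tiles were imaged over ~14 h. kobs, kcat and KM were obtained by fitting normalised per-tile medians to exponential decays and then applying weighted Michaelis–Menten fits across concentrations.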

glucosamine-6-phosphate [2] = variants of: B1; assay: self-cleavage kobs at 640 uM GlcN6P; higher = faster cleavage; RNA array
Outline: as §1

glucosamine-6-phosphate [3] = variants of: B1; assay: self-cleavage kobs at 2500 uM GlcN6P; higher = faster cleavage; RNA array
Outline: as §1

glucosamine-6-phosphate [4] = variants of: B1; assay: self-cleavage kobs at 10000 uM GlcN6P; higher = faster cleavage; RNA array
Outline: as §1

glucosamine-6-phosphate [5] = variants of: B1; assay: KM; higher = weaker cofactor use; RNA array
Outline: as §1

glucosamine-6-phosphate [6] = variants of: B1; assay: self-cleavage kobs at 160 uM GlcN6P; higher = faster cleavage; RNA array
Outline: as §1

glucosamine-6-phosphate [7] = variants of: B1; assay: self-cleavage kobs at 40 uM GlcN6P; higher = faster cleavage; RNA array
Outline: as §1

Row | Variant | kcat (glucosamine-6-phosphate [1]) | self-cleavage kobs at 640 uM GlcN6P (glucosamine-6-phosphate [2]) | self-cleavage kobs at 2500 uM GlcN6P (glucosamine-6-phosphate [3]) | self-cleavage kobs at 10000 uM GlcN6P (glucosamine-6-phosphate [4]) | KM (glucosamine-6-phosphate [5]) | self-cleavage kobs at 160 uM GlcN6P (glucosamine-6-phosphate [6]) | self-cleavage kobs at 40 uM GlcN6P (glucosamine-6-phosphate [7])
1 | U55A U65C C67A | 0.000108 ± 1.2e-05 s⁻¹ | 8.44e-05 ± 2.9e-05 s⁻¹ | 8.42e-05 ± 2.6e-05 s⁻¹ | 0.000114 ± 2.4e-05 s⁻¹ |  |  | 
2 | U56A C58U | 0.00027 ± 2.5e-05 s⁻¹ | 5.03e-05 ± 1.6e-05 s⁻¹ | 0.000108 ± 1.9e-05 s⁻¹ | 0.000208 ± 3.2e-05 s⁻¹ | 3350 ± 650 µM |  | 
3 | U57C C68G | 1.42e-05 ± 2.7e-06 s⁻¹ |  |  |  |  |  | 
4 | C58G C70U | 5.2e-05 ± 3.9e-06 s⁻¹ | 3.07e-05 ± 1.1e-05 s⁻¹ | 5.21e-05 ± 7e-06 s⁻¹ | 4.8e-05 ± 7.6e-06 s⁻¹ | 230 ± 110 µM | 2.43e-05 ± 1.1e-05 s⁻¹ | 
5 | C58G C70G | 5.46e-05 ± 1.6e-05 s⁻¹ | 7.73e-05 ± 2e-05 s⁻¹ | 5.92e-05 ± 1.4e-05 s⁻¹ |  |  | 4.69e-05 ± 1.8e-05 s⁻¹ | 
6 | G59U C71U | 5.45e-05 ± 7.2e-06 s⁻¹ |  | 2.79e-05 ± 1.3e-05 s⁻¹ | 4.88e-05 ± 8.4e-06 s⁻¹ |  |  | 
7 | G59U C71A | 1.28e-05 ± 7.6e-07 s⁻¹ |  |  |  |  |  | 
8 | U55A U65G | 0.00556 ± 0.0024 s⁻¹ | 0.000517 ± 0.0001 s⁻¹ | 0.00303 ± 0.001 s⁻¹ | 0.00343 ± 0.00072 s⁻¹ |  | 0.000125 ± 4.4e-05 s⁻¹ | 7.69e-05 ± 2.5e-05 s⁻¹
9 | G60A C70A | 1.05e-05 ± 2.5e-06 s⁻¹ |  |  |  |  |  | < 1e-05 s⁻¹
10 | U56A C71A | 0.00492 ± 0.0022 s⁻¹ | 0.000881 ± 0.0001 s⁻¹ | 0.00216 ± 0.00042 s⁻¹ | 0.00398 ± 0.00071 s⁻¹ |  | 0.000174 ± 3.4e-05 s⁻¹ | 9.35e-05 ± 1.1e-05 s⁻¹
11 | U56G C68G | 6.61e-05 ± 1e-05 s⁻¹ |  | 2.78e-05 ± 1.4e-05 s⁻¹ | 5.46e-05 ± 8.1e-06 s⁻¹ |  |  | 
12 | U56G C68U | 0.00243 ± 0.00033 s⁻¹ | 0.000551 ± 9.7e-05 s⁻¹ | 0.00206 ± 0.00046 s⁻¹ | 0.00208 ± 0.00021 s⁻¹ | 1660 ± 380 µM | 0.000217 ± 4.7e-05 s⁻¹ | 6.61e-05 ± 1.1e-05 s⁻¹
13 | U55C A64G | 0.000719 ± 0.00011 s⁻¹ | 0.000233 ± 3e-05 s⁻¹ | 0.000568 ± 7e-05 s⁻¹ | 0.000595 ± 6.1e-05 s⁻¹ | 1350 ± 370 µM | 6.7e-05 ± 1e-05 s⁻¹ | 4.14e-05 ± 1.2e-05 s⁻¹
14 | U55C A64U | 5.99e-05 ± 7.9e-06 s⁻¹ |  | 4.69e-05 ± 8e-06 s⁻¹ | 5.2e-05 ± 5.7e-06 s⁻¹ |  |  | 
15 | G60A C67G | 1.56e-05 ± 2e-06 s⁻¹ |  |  |  |  |  | 
16 | U56C C70A | 1.36e-05 ± 2.7e-06 s⁻¹ |  |  |  |  |  | 
17 | U56C C70U | 0.000177 ± 5e-06 s⁻¹ | 4.77e-05 ± 6.2e-06 s⁻¹ | 0.000111 ± 9.3e-06 s⁻¹ | 0.00015 ± 1e-05 s⁻¹ | 1660 ± 120 µM |  | 
18 | C58G G63A | < 1e-05 s⁻¹ |  |  |  |  |  | < 1e-05 s⁻¹
19 | C58G G63C | < 1e-05 s⁻¹ |  | < 1e-05 s⁻¹ |  |  |  | < 1e-05 s⁻¹

Row | Variant | kcat (glucosamine-6-phosphate [1]) | self-cleavage kobs at 640 uM GlcN6P (glucosamine-6-phosphate [2]) | self-cleavage kobs at 2500 uM GlcN6P (glucosamine-6-phosphate [3]) | self-cleavage kobs at 10000 uM GlcN6P (glucosamine-6-phosphate [4]) | KM (glucosamine-6-phosphate [5]) | self-cleavage kobs at 160 uM GlcN6P (glucosamine-6-phosphate [6]) | self-cleavage kobs at 40 uM GlcN6P (glucosamine-6-phosphate [7])
20 | U57A C61G G62C A64G U65A G66U C67G U69C | 3.85e-05 ± 9.7e-06 s⁻¹ |  | 4.83e-05 ± 2e-05 s⁻¹ |  |  |  | 
21 | A53U U69A | 0.000102 ± 1.2e-05 s⁻¹ | 0.000146 ± 3.1e-05 s⁻¹ | 0.000103 ± 1.7e-05 s⁻¹ | 9.48e-05 ± 1.3e-05 s⁻¹ |  | 5.84e-05 ± 1.7e-05 s⁻¹ | 4.28e-05 ± 1.3e-05 s⁻¹
22 | G59A C70A | 1.52e-05 ± 3.7e-06 s⁻¹ |  |  |  |  |  | 
23 | C61A A64U C71G | 1.67e-05 ± 3.2e-06 s⁻¹ |  |  |  |  |  | 
24 | U54C U56G | 0.0154 ± 0.0051 s⁻¹ | 0.0032 ± 0.0011 s⁻¹ |  | 0.0133 ± 0.0027 s⁻¹ | 2680 ± 1100 µM | 0.000649 ± 0.00019 s⁻¹ | 0.000282 ± 4.7e-05 s⁻¹
25 | U54C U56C | 0.0062 ± 0.0012 s⁻¹ | 0.00084 ± 0.00013 s⁻¹ | 0.002 ± 0.00042 s⁻¹ | 0.00471 ± 0.00069 s⁻¹ | 4050 ± 1000 µM | 0.000223 ± 3.3e-05 s⁻¹ | 7.75e-05 ± 1.4e-05 s⁻¹
26 | G60A G66C | < 1e-05 s⁻¹ | < 1e-05 s⁻¹ | < 1e-05 s⁻¹ | < 1e-05 s⁻¹ |  |  | 
27 | U57C C67A | 3.95e-05 ± 1.7e-06 s⁻¹ | 3.33e-05 ± 1.5e-05 s⁻¹ | 3.6e-05 ± 1.1e-05 s⁻¹ | 3.97e-05 ± 1.2e-05 s⁻¹ | 157 ± 71 µM |  | 
28 | C58A C67G | 9.61e-05 ± 2.2e-05 s⁻¹ | 6.98e-05 ± 9.8e-06 s⁻¹ | 6.08e-05 ± 1e-05 s⁻¹ | 0.000124 ± 1.3e-05 s⁻¹ |  | 3.39e-05 ± 1.3e-05 s⁻¹ | 
29 | U56A C68G C71U | 4.87e-05 ± 2e-05 s⁻¹ | 7.83e-05 ± 1.6e-05 s⁻¹ | 4e-05 ± 1.6e-05 s⁻¹ |  |  |  | 
30 | U57G C70U | 7.01e-05 ± 1.4e-05 s⁻¹ | 5.96e-05 ± 1.8e-05 s⁻¹ | 4.91e-05 ± 8.8e-06 s⁻¹ | 8.12e-05 ± 1.3e-05 s⁻¹ |  |  | 
31 | U57G C70A | 4.31e-05 ± 1.5e-05 s⁻¹ | 4.1e-05 ± 1.7e-05 s⁻¹ | 6.82e-05 ± 1.9e-05 s⁻¹ |  |  | 3.33e-05 ± 1.3e-05 s⁻¹ | 
32 | U57A C58A | 4.9e-05 ± 5.6e-06 s⁻¹ |  | 4.44e-05 ± 1.1e-05 s⁻¹ | 4.41e-05 ± 9.8e-06 s⁻¹ |  |  | 
33 | U54C G59U | 4.57e-05 ± 2.2e-05 s⁻¹ |  |  | 2.45e-05 ± 1.2e-05 s⁻¹ |  |  | 
34 | U56G U69G C71U | 4.56e-05 ± 1.5e-05 s⁻¹ | 3.88e-05 ± 1.7e-05 s⁻¹ | 5.83e-05 ± 2e-05 s⁻¹ |  |  | 8.5e-05 ± 2.7e-05 s⁻¹ | 
35 | U56G G59U | 2.54e-05 ± 5.7e-06 s⁻¹ |  | 2.9e-05 ± 1.4e-05 s⁻¹ | 2.16e-05 ± 1e-05 s⁻¹ |  | < 1e-05 s⁻¹ | 
36 | U54C U57C | 0.000143 ± 2e-05 s⁻¹ |  | 6.28e-05 ± 1.1e-05 s⁻¹ | 0.000105 ± 1.6e-05 s⁻¹ | 3450 ± 1100 µM |  | 
37 | U56C C71U | 0.000531 ± 7.9e-05 s⁻¹ | 0.000219 ± 3.6e-05 s⁻¹ | 0.000287 ± 5.6e-05 s⁻¹ | 0.000477 ± 4.5e-05 s⁻¹ | 1380 ± 590 µM |  | 
